Results published in publication PMC8257531, “ARL15 modulates magnesium homeostasis through N-glycosylation of CNNMs” (Cellular and Molecular Life Sciences: CMLS, 2021).

B1: CNNM2BAT (domain or fragment, UniProt Q9H8M5 429-584, looked up)
chain: KEELNIIQGALELRTKTVEDVMTPLRDCFMITGEAILDFNTMSEIMESGYTRIPVFEGERSNIVDLLFVKDLAFVDPDDCTPLKTITKFYNHPLHFVFNDTKLDAMLEEFKKGKSHLAIVQRVNNEGEGDPFYEVLGIVTLEDVIEEIIKSEILDE
notes: Bateman module (CBS1 and CBS2) of CNNM2, purified; theoretical mass of the monomer printed as 17.72 kDa; also called Bateman module of CNNM2

Legend:
CNNM2BAT = target: B1; test: SEC; Superdex 200 Increase 10/300 GL, 1 mg/mL protein, 0.5 ml/min, 50 mM Hepes pH 8.5, 200 mM NaCl, 1 mM MgCl2, 1 mM TCEP; masses from a calibration line; conditions: both partners purified
[1] = target: the molecule itself; test: as above

| Binder | stoichiometry N (CNNM2BAT) | stoichiometry N [1] |
| --- | --- | --- |
| Pure ARL15 (gel filtration) (natural protein, UniProt Q9NXU5 1-204, looked up, ARL15, purified; theoretical mass of the monomer printed as 19.57 kDa; The printed theoretical mass of 19.57 kDa is below that of whole ARL15, so a shortened construct is likely) MSDLRITEAFLYMDYLCFRALCCKGPPPARPEYDLVCIGLTGSGKTSLLSKLCSESPDNVVSTTGFSIKAVPFQNAILNVKELGGADNIRKYWSRYYQGSQGVIFVLDSASSEDDLEAARNELHSALQHPQLCTLPFLILANHQDKPAARSVQEIKKYFELEPLARGKRWILQPCSLDDMDALKDSFSQLINLLEEKDHEAVRM | 1 ARL15 per CNNM2BAT (2:2) | 2 |
| B1 |  | 2 |
